Laboratory results: article PMC11582362

B1: full length ADAR1 p110, wild type (FLAG-tagged and HA-tagged copies) [human] / full length ADAR1 p110, wild type (FLAG-tagged and HA-tagged copies) [human] (parent)
chain 1: MAEIKEKICDYLFNVSDSSALNLAKNIGLTKARDINAVLIDMERQGDVYRQGTTPPIWHLTDKKRERMQIKRNTNSVPETAPAAIPETKRNAEFLTCNIPTSNASNNMVTTEKVENGQEPVIKLENRQEARPEPARLKPPVHYNGPSKAGYVDFENGQWATDDIPDDLNSIRAAPGEFRAIMEMPSFYSHGLPRCSPYKKLTECQLKNPISGLLEYAQFASQTCEFNMIEQSGPPHEPRFKFQVVINGREFPPAEAGSKKVAKQDAAMKAMTILLEEAKAKDSGKSEESSHYSTEKESEKTAESQTPTPSATSFFSGKSPVTTLLECMHKLGNSCEFRLLSKEGPAHEPKFQYCVAVGAQTFPSVSAPSKKVAKQMAAEEAMKALHGEATNSMASDNQPEGMISESLDNLESMMPNKVRKIGELVRYLNTNPVGGLLEYARSHGFAAEFKLVDQSGPPHEPKFVYQAKVGGRWFPAVCAHSKKQGKQEAADAALRVLIGENEKAERMGFTEVTPVTGASLRRTMLLLSRSPEAQPKTLPLTGSTFHDQIAMLSHRCFNTLTNSFQPSLLGRKILAAIIMKKDSEDMGVVVSLGTGNRCVKGDSLSLKGETVNDCHAEIISRRGFIRFLYSELMKYNSQTAKDSIFEPAKGGEKLQIKKTVSFHLYISTAPCGDGALFDKSCSDRAMESTESRHYPVFENPKQGKLRTKVENGEGTIPVESSDIVPTWDGIRLGERLRTMSCSDKILRWNVLGLQGALLTHFLQPIYLKSVTLGYLFSQGHLTRAICCRVTRDGSAFEDGLRHPFIVNHPKVGRVSIYDSKRQSGKTKETSVNWCLADGYDLEILDGTRGTVDGPRNELSRVSKKNIFLLFKKLCSFRYRRDLLRLSYGEAKKAARDYETAKNYFKKGLKDMGYGNWISKPQEEKNFYLCPV
chain 2: B1 chain 1

Variants of: B1
Experiment: co-immunoprecipitation (anti-FLAG IP, anti-HA western blot, bands quantified with ImageJ)
Details: HEK293T cells, in the presence of RNases, n = 3, parent: 70, read off a plot

Variant	response
chain 1 V452A D453Q W473V C478S	11%
